US20260242493A1

Key:
[1] = target: recombinant human CD40L (BioLegend Cat. #591706) (human) (UniProt P29965); assay: ELISA on coated rhCD40L; lower limit of IC50
[2] = target: recombinant human FcγRI (human) (UniProt P12314); assay: ELISA: test protein coated, recombinant human FcγRI titrated, anti-CD64 detection, A450
Sequence of recombinant human FcγRI (human) (P12314 16-288 limits assumed): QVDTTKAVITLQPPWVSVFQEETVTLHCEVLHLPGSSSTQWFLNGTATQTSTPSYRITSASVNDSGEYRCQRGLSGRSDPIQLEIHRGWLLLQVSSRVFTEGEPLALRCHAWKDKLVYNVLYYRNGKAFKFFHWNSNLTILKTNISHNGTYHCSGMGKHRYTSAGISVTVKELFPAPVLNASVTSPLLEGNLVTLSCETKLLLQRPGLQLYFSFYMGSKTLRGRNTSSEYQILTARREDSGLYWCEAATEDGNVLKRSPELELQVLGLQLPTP

Sequence of recombinant human CD40L (BioLegend Cat. #591706) (human) (P29965 113-261 limits assumed, form in doubt): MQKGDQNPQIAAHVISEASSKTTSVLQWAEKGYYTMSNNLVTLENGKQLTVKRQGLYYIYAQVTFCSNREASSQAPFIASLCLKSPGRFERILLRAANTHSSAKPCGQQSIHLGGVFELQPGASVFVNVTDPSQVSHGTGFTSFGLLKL

LCL [1]: 0.04
EC50 (read off the curve) [2]: 0.2 µg/mL
Substance: anti-CD40L antibody 5c8 (reference antibody)
